Consider five proteins from paper PMC9813773, “LACC1 bridges NOS2 and polyamine metabolism in inflammatory macrophages” (Nature, 2022).

Substrate in data set [1]: NC(=O)NCCC[C@H](N)C(=O)O
The experiment in a line: L-Orn formation by LC-QQQ-MS, Michaelis-Menten. Format: biochemical, Mus musculus. As to conditions: 5-500 μM L-Cit, PBS pH 7.4, 1 μM ZnSO4, 37°C.

Substrate in data set [2]: NC(=O)NCCC[C@H](N)C(=O)O
The data set can be described thus: L-Orn formation by LC-QQQ-MS, Michaelis-Menten. The following applies: 5-500 μM L-Cit, PBS pH 7.4, 1 μM ZnSO4, 37°C. Format: biochemical, Homo sapiens.

Residue numbers refer to the chain shown, from its start. Names may count otherwise.

B1: mLACC1 (Mus musculus) (protein)
chain: MAEAVLIDLSGLQLNAQKNCHETLLETLDGIHYHHAPKAKFLCIICCRNASKEKDGEYGLCELEAGNGFSRLAGKFETVSHPCLAASLYTIKQKIDEENLSCIKVIVPEHRKLLMKAYVGQLFTEVYEFEFEDLQGAWRDSLLKPSTGINVTTTQELEDIQHEIETYLRSLPALKGDLTIVTSPLIPDNFLHGFTTRTGGISSVPTLSSLNLFSSSKRRDPKVVVQENVRRLANAAGFNAEKFYRIKTDHASEVWVMGKKEPESYDGIVTNQRGVTITALGADCIPIVFADPVKKACGVAHSGWKGTLLGVAMATVNAMIAEYGCDVEDIIVVLGPSVGSCCFTLPKESAVSFHSLHPSCVRHFDSPRPYVDIRKATRILLERGGILPQNIQDQKEDLDLCTSCHPEKFFSHVRDGLNFGTQIGFISLRE
notes: codon-optimized synthetic cDNA in pMAL-C5x (MBP fusion), E. coli BL21(DE3), amylose resin; tag cleavage not described
For B1, in data set [1], the Michaelis constant (Km) amounted to 117.2 µM and the kcat was 0.330 min⁻¹.

B2: hLACC1 (Homo sapiens) (protein)
chain: MAEAVLIDLFGLKLNSQKNCHQTLLKTLNAVQYHHAAKAKFLCIMCCSNISYERDGEQDNCEIETSNGLSALLEEFEIVSCPSMAATLYTIKQKIDEKNLSSIKVIVPRHRKTLMKAFIDQLFTDVYNFEFEDLQVTFRGGLFKQSIEINVITAQELRGIQNEIETFLRSLPALRGKLTIITSSLIPDIFIHGFTTRTGGISYIPTLSSFNLFSSSKRRDPKVVVQENLRRLANAAGFNVEKFYRIKTHHSNDIWIMGRKEPDSYDGITTNQRGVTIAALGADCIPIVFADPVKKACGVAHAGWKGTLLGVAMATVNAMIAEYGCSLEDIVVVLGPSVGPCCFTLPRESAEAFHNLHPACVQLFDSPNPCIDIRKATRILLEQGGILPQNIQDQNQDLNLCTSCHPDKFFSHVRDGLNFGTQIGFISIKE
notes: as for B1
Turning to B2, in data set [2], the Km was 163.7 µM and the kcat was found to be 0.340 min⁻¹.

B3: hLACC1 (Homo sapiens; K38E) (protein)
chain: B2 chain with K38E
notes: as for B1
Turning to B3, in data set [2], the Michaelis-Menten constant (Km) was determined as 81.58 µM and the catalytic constant (kcat) amounted to 0.306 min⁻¹.

B4: hLACC1 (Homo sapiens; C284R) (protein)
chain: B2 chain with C284R
notes: as for B1
Regarding B4, in data set [2], the Km is 155.8 µM and the kcat is 0.165 min⁻¹.

B5: hLACC1 (Homo sapiens; I254V) (protein)
chain: B2 chain with I254V
notes: as for B1
Regarding B5, in data set [2], the Michaelis constant (Km) came to 181.3 µM and the kcat came out at 0.260 min⁻¹.
